This assay deals with Elongation Factor 1 alpha (EF1α), endogenous in rat liver lysosomes (rat (endogenous in rat liver)) (UniProt P62630). As to the kind of experiment: co-IP.

Results on one substance are retold here after article PMC2945256.

UniProt P62630, sequence (P62630 whole entry): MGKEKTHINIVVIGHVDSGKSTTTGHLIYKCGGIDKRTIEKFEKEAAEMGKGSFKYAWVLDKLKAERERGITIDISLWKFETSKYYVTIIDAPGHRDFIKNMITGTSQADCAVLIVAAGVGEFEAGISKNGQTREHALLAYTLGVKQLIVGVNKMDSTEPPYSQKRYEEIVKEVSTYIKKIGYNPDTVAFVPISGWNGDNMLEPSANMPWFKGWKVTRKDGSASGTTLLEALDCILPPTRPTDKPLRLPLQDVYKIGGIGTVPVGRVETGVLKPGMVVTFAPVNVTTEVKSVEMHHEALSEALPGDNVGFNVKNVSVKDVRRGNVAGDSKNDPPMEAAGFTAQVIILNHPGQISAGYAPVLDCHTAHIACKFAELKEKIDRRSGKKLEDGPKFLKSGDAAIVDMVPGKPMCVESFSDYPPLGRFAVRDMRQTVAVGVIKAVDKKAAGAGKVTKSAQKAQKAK

Take “glial fibrillary acidic protein (GFAP), endogenous in rat liver lysosomes (from UniProt P47819 1-430) (natural protein)”: the decrease of GFAP co-immunoprecipitated with EF1α upon addition of GTP was 47.2%.
